Test results published in patent publication US20260209362A1 (VIB VZW, published 2026).
Changes are numbered by the printed parent chain.

T1: biotinylated recombinant mouse IL-12Rβ2 (produced in-house) (mouse, UniProt P97378 24-637, random biotinylated)
T1 construct: also called mIL-12RB2; mIL12RB2
T1 sequence: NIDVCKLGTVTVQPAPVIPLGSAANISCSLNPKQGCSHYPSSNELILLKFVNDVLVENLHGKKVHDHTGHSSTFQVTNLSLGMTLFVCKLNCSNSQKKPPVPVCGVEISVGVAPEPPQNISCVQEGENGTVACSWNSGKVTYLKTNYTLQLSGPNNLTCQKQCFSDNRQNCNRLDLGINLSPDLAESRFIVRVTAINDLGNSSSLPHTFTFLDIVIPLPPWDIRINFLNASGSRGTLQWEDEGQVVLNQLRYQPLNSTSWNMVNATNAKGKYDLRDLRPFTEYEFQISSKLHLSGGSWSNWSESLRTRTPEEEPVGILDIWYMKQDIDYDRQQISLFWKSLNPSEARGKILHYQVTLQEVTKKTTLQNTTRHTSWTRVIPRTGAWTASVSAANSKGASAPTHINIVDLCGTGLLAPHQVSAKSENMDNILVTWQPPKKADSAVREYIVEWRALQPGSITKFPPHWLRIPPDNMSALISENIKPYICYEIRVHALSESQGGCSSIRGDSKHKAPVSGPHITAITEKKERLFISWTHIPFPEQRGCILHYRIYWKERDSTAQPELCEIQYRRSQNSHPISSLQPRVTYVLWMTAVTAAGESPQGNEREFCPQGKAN

T2: biotinylated recombinant human IL-12Rβ2 (produced in-house) (human, UniProt Q99665 24-622, random biotinylated)
T2 construct: also called hIL-12RB2; hIL12RB2
T2 sequence: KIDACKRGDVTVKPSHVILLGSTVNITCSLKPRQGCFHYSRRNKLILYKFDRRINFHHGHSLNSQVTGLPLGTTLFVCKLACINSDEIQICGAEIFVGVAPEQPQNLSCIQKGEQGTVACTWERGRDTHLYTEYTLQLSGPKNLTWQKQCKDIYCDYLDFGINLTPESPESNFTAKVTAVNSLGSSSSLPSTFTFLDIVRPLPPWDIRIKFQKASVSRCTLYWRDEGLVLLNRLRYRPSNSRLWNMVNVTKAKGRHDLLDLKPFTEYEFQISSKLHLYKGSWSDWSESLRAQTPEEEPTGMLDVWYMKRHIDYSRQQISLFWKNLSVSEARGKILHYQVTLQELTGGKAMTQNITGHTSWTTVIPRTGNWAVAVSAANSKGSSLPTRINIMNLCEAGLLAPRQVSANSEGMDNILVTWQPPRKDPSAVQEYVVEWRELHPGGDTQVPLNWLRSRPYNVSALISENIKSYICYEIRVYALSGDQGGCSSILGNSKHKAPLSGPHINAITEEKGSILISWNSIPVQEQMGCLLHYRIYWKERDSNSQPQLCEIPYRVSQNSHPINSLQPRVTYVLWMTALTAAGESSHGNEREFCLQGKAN

T3: human IL-12Rβ2 expressed on cells (human, UniProt Q99665 24-862)
T3 construct: HEK293T cells transiently transfected with a human IL-12Rβ2 plasmid (Genscript OHu21785); also called hIL-12RB2
T3 sequence: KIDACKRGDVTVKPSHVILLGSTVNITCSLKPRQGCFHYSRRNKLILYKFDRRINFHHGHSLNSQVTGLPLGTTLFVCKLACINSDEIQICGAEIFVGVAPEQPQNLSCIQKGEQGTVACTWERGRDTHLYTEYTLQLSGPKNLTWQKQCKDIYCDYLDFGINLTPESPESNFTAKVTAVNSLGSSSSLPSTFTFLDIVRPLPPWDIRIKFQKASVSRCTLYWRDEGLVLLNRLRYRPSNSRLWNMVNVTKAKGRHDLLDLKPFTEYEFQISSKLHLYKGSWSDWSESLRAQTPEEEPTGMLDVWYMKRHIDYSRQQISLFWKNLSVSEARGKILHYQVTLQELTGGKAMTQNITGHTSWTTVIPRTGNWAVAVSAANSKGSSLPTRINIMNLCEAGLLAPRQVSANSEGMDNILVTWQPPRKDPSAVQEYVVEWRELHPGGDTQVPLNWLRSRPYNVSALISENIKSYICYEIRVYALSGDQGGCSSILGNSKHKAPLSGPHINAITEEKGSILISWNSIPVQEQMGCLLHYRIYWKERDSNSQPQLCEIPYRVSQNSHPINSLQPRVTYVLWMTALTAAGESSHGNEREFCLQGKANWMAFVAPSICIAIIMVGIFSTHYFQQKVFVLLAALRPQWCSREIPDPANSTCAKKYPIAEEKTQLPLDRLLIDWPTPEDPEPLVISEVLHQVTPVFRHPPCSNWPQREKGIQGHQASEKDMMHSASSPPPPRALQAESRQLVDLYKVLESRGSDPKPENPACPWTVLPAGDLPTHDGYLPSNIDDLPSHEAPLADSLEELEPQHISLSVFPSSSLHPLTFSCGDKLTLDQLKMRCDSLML

B1: anti-IL-12Rβ2 VHH clone 2CRH82 (VHH, not shown: small tags and cut ends)
VHH: QVQLQESGGGLVQAGGSLRLSCAASARTESMYAMAWFRQAPGKEREIVAGIIQSGGTTYISDYMKGRFSIDRGNAENTVYLQMDSLKPEDTAVYSCAAKVSSGTPSDIQISQSRWYDHWGQGTQVTVSS
notes: tested as periplasmic extract
B2: anti-IL-12Rβ2 VHH clone 3CRHS163 (VHH, not shown: small tags and cut ends)
VHH: QVQLQESGGGLVQPGGSLRLSCTASGFAFSTYWMYWIRQSPEKGFEWVSVVNTGGDITYYADSVKGRFTISRDNAKNTLYLQMNSLKPEDTALYYCARDRTTMSYTRTYYRGGQGTQVTVSS
notes: tested as periplasmic extract
B3: anti-IL-12Rβ2 VHH clone 3CAHS171 (VHH, not shown: small tags and cut ends)
VHH: QVQLQESGGGLVQPGGSLRLTCVASGFPFSTHAMSWVRQPPGKGREWISAINSGGDSTDYADSVMGRFTISRDNAKNTVYLQMNSLKSEDTAAYYCAKYEDCSDYDCSSRASWGQGTQVTVSS
notes: tested as periplasmic extract; also called 3CANS171
B4: anti-IL-12Rβ2 VHH clone 3CAHS124 (VHH, not shown: small tags and cut ends)
VHH: QVQLQESGGGLVQPGGSLRLSCAASGRTINAYIMGWFRQAPGKEREFVAAVSGSGGSTYYADSVKGRFTISRDNAKNTVNLQMDNLRSEDTDVYYCAATYESVYLQNPGQYDYWGQGTQVTVSS
notes: tested as periplasmic extract
B5: anti-IL-12Rβ2 VHH clone 3CRHS106 (VHH, not shown: small tags and cut ends)
VHH: QVQLQESGGGLVQPGGSLRLSCKASGFTFSTYAMSWVRQAPGKGLEWVSAVNSGGLSTDYADSVEGRFTISRDDAKNMLFLQMNSLKPEDTARYYCAKYEDCSDYMCHRDRAGYWGQGTQVTVSS
notes: tested as periplasmic extract
B6: anti-IL-12Rβ2 VHH clone 3CRH5 (VHH, not shown: small tags and cut ends)
VHH: QVQLQESGGGLVQAGGSLVLSCAASGSAALIFLMSWYRQAPGKQRELVAEVSRGGSTTYADSVEGRFTISRDNAKNIVDLQMNSLKPEDTAVYYCKADQNYGDSLRSSWGQGTQVTVSS
notes: tested as periplasmic extract; also called 3CRHS
B7: anti-IL-12Rβ2 VHH clone 3CAHS41 (VHH, not shown: small tags and cut ends)
VHH: QVQLQESGGGLVQAGDSLRLSCAASGRTFDTYIVGWFRQAPGKEREFVSALSWSDDTTIRDDSLRGRFTISRDNAKNTVYLLMNSLKPEDTAVYYCAAKAKPPAATWSSYRNREWYDYWGQGTQVTVSS
notes: tested as periplasmic extract
B8: anti-IL-12Rβ2 VHH clone 3CAHS102 (VHH, not shown: small tags and cut ends)
VHH: QVQLQESGGGLVQPGGSLRLSCAASGSILRINLMGWYRQVPGKQRELVAEMSTGGSTTYVDSVEGRFTISRDNAKNTVYLQMNSLKPEDTAVYYCNAKAWQLGRLENDDWGQGTQVTVSS
notes: tested as periplasmic extract
B9: anti-IL-12Rβ2 VHH clone 3CRHS128 (VHH, not shown: small tags and cut ends)
VHH: QVQLQESGGGLVQPGGSLRLSCAASGFTFSTSGMHWFRQAPGKGLEWVSSIGATVDNSYYASSVKGRFTISRDNAKNTLYLLMNSLKSEDTAVYYCSKDPTGSSRGQGTQVTVSS
notes: tested as periplasmic extract; also called SCRHS128
B10: anti-IL-12Rβ2 VHH clone 3CRH25 (VHH, not shown: small tags and cut ends)
VHH: QVQLQESGGGLVQAGDSLRLSCTASGHTFSRYTTIGWFRQAPGKDREFVAAIRWSGDITDYADAVKGRFTISRDNVKNTVYLQMNSLNPEDTAVYYCARGYSEYGVLSRNRGLYAYWGQGTQVTVSS
notes: tested as periplasmic extract
B11: anti-IL-12Rβ2 VHH clone 3CAHS142 (VHH, not shown: small tags and cut ends)
VHH: QVQLQESGGGLVQAGESLTLSCIASGVIKDYAMGWFRQAPGKEREFVAAISWSGVSIYYADSVKGRFTISRDNAKNTVYLQMNSLEPEDTAVYYCAGTEGAYTVAGGSTFGYDMDYWGKGTQVTVSS
notes: tested as periplasmic extract
B12: anti-IL-12Rβ2 VHH clone 3CRHS54 (VHH, not shown: small tags and cut ends)
VHH: QVQLQESGGGLVQPGGSLRLSCTASGSIVSIYNMDWYRQAPGNEREWVASITSSGDPYYDGSAKGRFTISRDNAKMTVYLQMNSLEPEDTAVYFCKVPTEKGNYWGQGTQVTVSS
notes: tested as periplasmic extract; also called 3CRHSS4
B13: anti-IL-12Rβ2 VHH clone 3CRHS9 (VHH, not shown: small tags and cut ends)
VHH: B12 VHH with E86K, F94Y
notes: tested as periplasmic extract

Molecular target: T1, biotinylated recombinant mouse IL-12Rβ2 …
Experiment: ELISA, P.E. VHH on biotinylated mIL-12RB2

B1: no binding.
B2: no binding.
B3: no binding.
B4: no binding.
B5: no binding.
B6: no binding.
B7: no binding.
B8: no binding.
B9: no binding.
B10: no binding.
B11: no binding.
B12: no binding.
B13: no binding.

Molecular target: T2, biotinylated recombinant human IL-12Rβ2 …
Experiment: BLI (Octet), P.E. VHH on immobilised biotinylated hIL-12RB2

Compared with B1, B2 is lower in Response: 0.426 for the first, 0.339 for the second.

First: B3
Second: B4
The Response of the first is lower: 0.195 for the first, 0.293 for the second.

Going from B5 to B6, the Response rises from 0.297 to 0.491.

First: B7
Second: B8
The Response of the first is higher: 0.609 for the first, 0.323 for the second.

Going from B9 to B10, the Response rises from 0.294 to 0.523.

First: B11
Second: B12
The Response of the first is higher: 0.352 for the first, 0.203 for the second.

B13 gave a Response of 0.222.

Molecular target: T2, biotinylated recombinant human IL-12Rβ2 …
Experiment: BLI (Octet), P.E. VHH on immobilised biotinylated hIL-12RB2, 1:1 model

B1 and B2 are within 1.5-fold of each other in koff: 0.00274 s⁻¹ for the first, 0.00302 s⁻¹ for the second.

B3 and B4 are within 1.5-fold of each other in koff: 0.00431 s⁻¹ for the first, 0.00324 s⁻¹ for the second.

B5 and B6 are within 1.5-fold of each other in koff: 0.00355 s⁻¹ for the first, 0.00337 s⁻¹ for the second.

Compared with B7, B8 is 1.7-fold lower in koff: 0.00441 s⁻¹ for the first, 0.00267 s⁻¹ for the second.

B9 and B10 are within 1.5-fold of each other in koff: 0.00274 s⁻¹ for the first, 0.00205 s⁻¹ for the second.

B11 and B12 are within 1.5-fold of each other in koff: 0.00324 s⁻¹ for the first, 0.00272 s⁻¹ for the second.

B13 gave a koff of 0.0034 s⁻¹.

Molecular target: T2, biotinylated recombinant human IL-12Rβ2 …
Experiment: ELISA, P.E. VHH on biotinylated hIL-12RB2, signal ratio to control well

First: B1
Second: B2
The “ELISA hIL12RB2/control” value of the first is higher: 16.1 for the first, 3.58 for the second.

Going from B3 to B4, the “ELISA hIL12RB2/control” value rises from 3.27 to 5.67.

Going from B5 to B6, the “ELISA hIL12RB2/control” value falls from 10.2 to 8.64.

First: B7
Second: B8
The “ELISA hIL12RB2/control” value of the first is higher: 8.77 for the first, 3.54 for the second.

First: B9
Second: B10
The “ELISA hIL12RB2/control” value of the first is lower: 3.65 for the first, 5.16 for the second.

Going from B11 to B12, the “ELISA hIL12RB2/control” value rises from 4.98 to 7.85.

With B13 the “ELISA hIL12RB2/control” value was 5.08.

Molecular target: T1, biotinylated recombinant mouse IL-12Rβ2 …
Experiment: ELISA, P.E. VHH on biotinylated mIL-12RB2, signal ratio to control well

Going from B1 to B2, the “ELISA mIL12RB2/control” value falls from 1.77 to 0.93.

First: B3
Second: B4
The “ELISA mIL12RB2/control” value of the first is lower: 0.96 for the first, 1 for the second.

Going from B5 to B6, the “ELISA mIL12RB2/control” value falls from 1.03 to 0.81.

First: B7
Second: B8
The “ELISA mIL12RB2/control” value of the first is higher: 1.35 for the first, 1.02 for the second.

First: B9
Second: B10
The “ELISA mIL12RB2/control” value of the first is lower: 0.98 for the first, 1.04 for the second.

First: B11
Second: B12
The “ELISA mIL12RB2/control” value of the first is lower: 1.07 for the first, 1.26 for the second.

B13 was tested, and the “ELISA mIL12RB2/control” value was 1.09.

Molecular target: T3, human IL-12Rβ2 expressed on cells
Experiment: flow cytometry, P.E. VHH on HEK293T cells transiently expressing hIL-12RB2

Compared with B1, B2 is higher in dMFI: 744 for the first, 1050 for the second.

Compared with B3, B4 is lower in dMFI: 1180 for the first, 1100 for the second.

Going from B5 to B6, the dMFI falls from 1010 to 735.

Compared with B7, B8 is higher in dMFI: 971 for the first, 994 for the second.

First: B9
Second: B10
The dMFI of the first is higher: 1380 for the first, 520 for the second.

Going from B11 to B12, the dMFI rises from 812 to 870.

Work on B13 yielded a dMFI of 941.
